26 sequences from the supplement of paper PMC10724198 can be followed below.

Data set [1] has as its system Saccharomyces cerevisiae. The experiment in a line: protein stability index of tFT-peptide fusion in wild type (PSI (0-1 scale)); higher = more stable (slower turnover). Particulars: genetic background: wild type.
In data set [2] the test system is Saccharomyces cerevisiae. Briefly: protein stability index of tFT-peptide fusion (C-terminal peptide) (PSI (0-1 scale)); higher = more stable (slower turnover). As for the experimental part: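 MPS profiling in S. cerevisiae of the tFT-X12 degron library: putative degron peptides plus stable controls, 12 aa, fused to the C-terminus of a sfGFP-mCherry timer. Cells are FACS-sorted into 8 mCherry/sfGFP bins and deep-sequenced. PSI runs from 0 (unstable) to 1 (stable). Backgrounds are wild type, das1Δ and doa10Δ at 30 °C, and wild type, das1Δ, cdc34-1 and cdc53-1 at 37 °C; 2-3 technical replicates each.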

Data set [3] deals with Saccharomyces cerevisiae. Described as above. Particulars: genetic background: wild type; temperature: 30 C.
Data set [4] relates to Saccharomyces cerevisiae. The experiment in a line: protein stability index of tFT-peptide fusion in deletion strain of DOA10 (PSI (0-1 scale)); higher = more stable (slower turnover). As to the method: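 MPS profiling in S. cerevisiae of two library types built from selected 12-aa C-degron peptides (IN1, IN2, LN1, LN3, VN2, R1-R5, W1-W3, Atg1 and Rpa12 C-termini): saturation mutagenesis libraries and C-terminal +1 capping libraries (13 aa). Each peptide is fused to the C-terminus of a sfGFP-mCherry timer, after a GGGS linker. Cells are FACS-sorted into 8 mCherry/sfGFP bins and sequenced. PSI runs from 0 (unstable) to 1 (stable), measured once in wild type and in the das1Δ or doa10Δ background.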

± gives the standard deviation of the averaged measurements.
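For protein stability index of tFT-peptide fusion (C-terminal peptide) in this document: PSI is a weighted mean of sequencing reads over stability bins, variants kept only with over 10 reads, mCherry proximal and sfGFP distal, peptide attached via GGGS linker.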
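For protein stability index of tFT-peptide fusion in deletion strain of DOA10 in this document: PSI per variant is the weighted mean of its sequencing read distribution over the sorted stability bins, counting only variants with over 10 reads summed across bins.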
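For protein stability index of tFT-peptide fusion in wild type in this document: PSI derived as read-weighted mean over the 8 sorting bins, only variants exceeding 10 total reads kept, mCherry placed adjacent to the peptide and sfGFP distal.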

On to GLYMCSVGCWFR, for which the protein stability index in the data set with Saccharomyces cerevisiae [1] worked out at 0.264; with Saccharomyces cerevisiae [2] (genetic background: cdc34-1, temperature: 37 C) it was 0.104 ± 0.0033; in the data set with Saccharomyces cerevisiae [2] (genetic background: cdc53-1, temperature: 37 C) it was 0.0717 ± 0.0099; with Saccharomyces cerevisiae [2] (genetic background: das1 deletion, temperature: 30 C), 0.223 ± 0.033; in the data set on Saccharomyces cerevisiae [2] (genetic background: das1 deletion, temperature: 37 C), 0.2809 ± 0.001; with Saccharomyces cerevisiae [2] (genetic background: doa10 deletion, temperature: 30 C), 0.586 ± 0.011. In addition, the protein stability index in the data set with Saccharomyces cerevisiae [2] (genetic background: wild type, temperature: 30 C) amounted to 0.231 ± 0.018; with Saccharomyces cerevisiae [2] (genetic background: wild type, temperature: 37 C) it was 0.252 ± 0.0062; with Saccharomyces cerevisiae [3], 0.408 ± 0.085; with Saccharomyces cerevisiae [4], 0.629.
In the case of RSTRVLLPLYFR, the values for the protein stability index with Saccharomyces cerevisiae [1] and with Saccharomyces cerevisiae [4] were 0.292 and 0.684, respectively.
On the same counts, the results for RVTHLDAIYFRI are 0.471 and 0.645.
On the same counts, the results for RVTPLDAIYFRI are 0.547 and 0.675.
On the same counts, the results for RVTRLAAIYFRI are 0.173 and 0.38.
Consider RVTRLDAAYFRI, for which the protein stability index with Saccharomyces cerevisiae [1] was determined as 0.653; in the data set with Saccharomyces cerevisiae [4] it was 0.704.
On the same counts, the results for RVTRLDAIDFRI are 0.668 and 0.746.
On the same counts, the results for RVTRLDAITFRI are 0.678 and 0.72.
Regarding RVTRLDAIYFEI, the protein stability index was 0.69 with Saccharomyces cerevisiae [1] and 0.725 in the data set on Saccharomyces cerevisiae [4].
On the same counts, the results for RVTRLDAIYFII are 0.0744 and 0.111.
For RVTRLDAIYFRG, the protein stability index amounted to 0.664 in the data set with Saccharomyces cerevisiae [1] and 0.701 with Saccharomyces cerevisiae [4].
On the same counts, the results for RVTRLDAIYFRH are 0.604 and 0.716.
On the same counts, the results for RVTRLDAIYFRIF are 0.0593 and 0.0962.
Regarding RVTRLDAIYFRIQ, the protein stability index in the data set on Saccharomyces cerevisiae [1] came to 0.218; in the data set on Saccharomyces cerevisiae [4] it was 0.256.
Take RVTRLDAIYFRK: the protein stability index in the data set on Saccharomyces cerevisiae [1] is 0.673; with Saccharomyces cerevisiae [4], 0.711.
For the sequence RVTRLDAIYFRS, the protein stability index in the data set on Saccharomyces cerevisiae [1] came out at 0.641; in the data set with Saccharomyces cerevisiae [4], 0.72.
Take RVTRLDAIYFRT: the values for the protein stability index in the data set on Saccharomyces cerevisiae [1] and in the data set with Saccharomyces cerevisiae [4] were 0.546 and 0.703, respectively.
RVTRLDAIYFYI: the protein stability index in the data set on Saccharomyces cerevisiae [1] came out at 0.425; in the data set on Saccharomyces cerevisiae [4], 0.449.
On the same counts, the results for RVTRLDAIYRRI are 0.684 and 0.721.
On the same counts, the results for RVTRLSAIYFRI are 0.22 and 0.458.
On to RVTRLVAIYFRI, for which the protein stability index in the data set on Saccharomyces cerevisiae [1] came to 0.19; in the data set with Saccharomyces cerevisiae [4], 0.394.
On the same counts, the results for RVTRLWAIYFRI are 0.167 and 0.377.
On the same counts, the results for RVTRRDAIYFRI are 0.485 and 0.673.
On the same counts, the results for RVTVLDAIYFRI are 0.516 and 0.651.
Regarding RWTRLDAIYFRI, the protein stability index with Saccharomyces cerevisiae [1] worked out at 0.337; with Saccharomyces cerevisiae [4], 0.528.
On the same counts, the results for SLVSLPILLFFR are 0.0746 and 0.619.
